{
  "source": "IntAct's records for PubMed 21708944",
  "parents": {"B1": {"name": "Chromosomal replication initiator protein DnaA (Escherichia coli (strain K12)), P03004 (parent)", "chain": "MSLSLWQQCLARLQDELPATEFSMWIRPLQAELSDNTLALYAPNRFVLDWVRDKYLNNINGLLTSFCGADAPQLRFEVGTKPVTQTPQAAVTSNVAAPAQVAQTQPQRAAPSTRSGWDNVPAPAEPTYRSNVNVKHTFDNFVEGKSNQLARAAARQVADNPGGAYNPLFLYGGTGLGKTHLLHAVGNGIMARKPNAKVVYMHSERFVQDMVKALQNNAIEEFKRYYRSVDALLIDDIQFFANKERSQEEFFHTFNALLEGNQQIILTSDRYPKEINGVEDRLKSRFGWGLTVAIEPPELETRVAILMKKADENDIRLPGEVAFFIAKRLRSNVRELEGALNRVIANANFTGRAITIDFVREALRDLLALQEKLVTIDNIQKTVAEYYKIKVADLLSKRRSRSVARPRQMAMALAKELTNHSLPEIGDAFGGRDHTTVLHACRKIEQLREESHDIKEDFSNLIRTLSS", "partner": "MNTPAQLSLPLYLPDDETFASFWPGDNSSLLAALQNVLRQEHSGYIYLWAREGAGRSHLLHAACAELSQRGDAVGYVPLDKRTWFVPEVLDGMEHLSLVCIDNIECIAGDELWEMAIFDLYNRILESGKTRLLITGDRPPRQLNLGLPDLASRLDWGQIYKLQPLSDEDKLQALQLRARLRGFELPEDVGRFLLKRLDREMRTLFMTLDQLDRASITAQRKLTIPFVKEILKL"}},
  "data": [
    {"variants_of": "B1", "conditions": "with hda_ecoli hda", "values": [
      {"variant": "MSLSLWQQCLARLQDELPATEFSMWIRPLQAELSDNTLALYAPNRFVLDWVRDKYLNNINGLLTSFCGADAPQLRFEVGTKPVTQTPQAAVTSNVAAPAQVAQTQPQRAAPSTRSGWDNVPAPAEPTYRSNVNVKHTFDNFVEGKSNQLARAAARQVADNPGGAYNPLFLYGGTGLGKTHLLHAVGNGIMARKPNAKVVYMHSERFVQDMVKALQNNAIEEFKRYYRSVDALLIDDIQFFANKERSQEEFFHTFNALLEGNQQIILTSDRYPKEINGVEDRLKSRFGWGLTVAIEPPELETRVAILMKKADENDIRLPGEVAFFIAKRLRSNVRELEGALNRVIANANFTGRAITIDFVREALRDLLALQEKLVTIDNIQKTVAEYYKIKVADLLSKRRSRSVARPRQMAMALAKELTNHSLAEIGDAFGGRDHTTVLHACRKIEQLREESHDIKEDFSNLIRTLSS", "note": "[P423A]", "effect of a mutation on the interaction": "decreasing interaction"},
      {"variant": "MSLSLWQQCLARLQDELPATEFSMWIRPLQAELSDNTLALYAPNRFVLDWVRDKYLNNINGLLTSFCGADAPQLRFEVGTKPVTQTPQAAVTSNVAAPAQVAQTQPQRAAPSTRSGWDNVPAPAEPTYRSNVNVKHTFDNFVEGKSNQLARAAARQVADNPGGAYNPLFLYGGTGLGKTHLLHAVGNGIMARKPNAKVVYMHSERFVQDMVKALQNNAIEEFKRYYRSVDALLIDDIQFFANKERSQEEFFHTFNALLEGNQQIILTSDRYPKEINGVEDRLKSRFGWGLTVAIEPPELETRVAILMKKADENDIRLPGEVAFFIAKRLRSNVRELEGALNRVIANANFTGRAITIDFVREALRDLLALQEKLVTIDNIQKTVAEYYKIKVADLLSKRRSRSVARPRQMAMALAKELTNHSAPEIGDAFGGRDHTTVLHACRKIEQLREESHDIKEDFSNLIRTLSS", "note": "[L422A]", "effect of a mutation on the interaction": "decreasing interaction"},
      {"variant": "MSLSLWQQCLARLQDELPATEFSMWIRPLQAELSDNTLALYAPNRFVLDWVRDKYLNNINGLLTSFCGADAPQLRFEVGTKPVTQTPQAAVTSNVAAPAQVAQTQPQRAAPSTRSGWDNVPAPAEPTYRSNVNVKHTFDNFVEGKSNQLARAAARQVADNPGGAYNPLFLYGGTGLGKTHLLHAVGNGIMARKPNAKVVYMHSERFVQDMVKALQNNAIEEFKRYYRSVDALLIDDIQFFANKERSQEEFFHTFNALLEGNQQIILTSDRYPKEINGVEDRLKSRFGWGLTVAIEPPELETRVAILMKKADENDIRLPGEVAFFIAKRLRSNVRELEGALNRVIANANFTGRAITIDFVREALRDLLALQEKLVTIDNIQKTVAEYYKIKVADLLSKRRSRSVARPRQMAMALAKELTNHSGPEIGDAFGGRDHTTVLHACRKIEQLREESHDIKEDFSNLIRTLSS", "note": "[L422G]", "effect of a mutation on the interaction": "decreasing interaction"}
    ]}
  ]
}
